Data taken from patent publication US20210145921A1, “COMPOSITION COMPRISING VEGF ANTAGONISTS AND A CATIONIC PEPTIDE AND USES THEREOF” (UCL BUSINESS LTD, priority 2017, published 2021).
Each block holds one compound with its values, some of them ahead of it.

How the values were obtained:
[1] = test system: HCE-S corneal epithelial barrier; test: in vitro HCE-S transwell transcytosis assay (Papp); assay type: in vitro ADME, human; details: for enhancement of delivery of Lucentis across the HCE-S barrier: Papp
Description: HCE-S barrier models for transcytosis assays were prepared using an adaptation of a previously described method.^[1] HCE-S cells (5×10^4 cells/well) were seeded on transwell inserts (poly-carbonate, 3 μm pore size, 1.13 cm^2) and maintained for 7 days refreshing the medium in the apical and basal chambers every second day. After this time cells were cultured for a further 10 days at an apical air interface to encourage development of a multilayer barrier. Prior to each experiment culture medium was replaced with phenol red free DMEM and barrier integrity measured via transepithelial resistance (TER). TER values were obtained in the range 300-600 Ωcm^2 and only epithelial barriers with TERs>300 Ω·cm^2, the accepted threshold for tight epithelial barriers, were used for transcytosis experiments.
Permeation studies were conducted to determine the rate of anti-VEGF transcytosis in the presence/absence of varying concentrations of R8. Experiments were initiated by adding 1.5 ml serum- and phenol red-free DMEM to the basal chamber and 0.5 ml to the apical chamber containing 0.1 mg/mL Avastin or Lucentis in the presence of varying molar ratios of R8. After 3 h, 100 μl of medium was withdrawn from the basal chamber and the concentration of anti-VEGF in the basal chamber was determined using established and commercially available sandwich ELISA techniques (KPL Protein Detector HRP Microwell Kit, Anti-Human Cat #54-62-10 with Jackson Immuno Research AffiniPure Rabbit Anti-Human IgG capture antibody).^[1] […] The permeability coefficient (Papp) of each anti-VEGF was determined as previously described^[1] using equation 1;
where CR is the final concentration of anti-VEGF recovered from the ELISA assay, CD is the initial concentration of anti-VEGFs added to the assay, tmin is the transcytosis time (180 min), VR is the volume of the receiving chamber (1.5 ml) and A represents the filter area (1.12 cm^2).
Lucentis (+/−Steryl-R8) were applied to the Apical chamber and the concentration crossing the barrier was determined from the basolateral chamber at different timepoints using a Lucentis sandwich ELISA. Intact HCE-S barrier was confirmed by measuring transepithelial resistance (>[…]) before each assay.

[2] = dextran transcytosis assay; assay type: in vitro ADME
Excerpt: The fifth experiment conducted was whether R8 affected the transport of dextrans across a membrane, FIG. 27. Dextrans are complex branched polysaccharides made of many glucose molecules. They can be composed of chains of varying lengths.

[3] = test system: HCE-S cells; test: AlamarBlue cell viability assay; assay type: cell-based, human; details: 24 h exposure, up to 200/1 molar ratio
Description: HCE-S monolayers for uptake assays were prepared by seeding 96 well plates with 1×10^4 cells/well and maintaining for 5 days replacing the medium every other day. After this time, medium was replaced with that containing 100 μM calcein loaded PLVs in the presence or absence of 200 nM AnxA5. Cells were incubated with PLVs at 37° C. for 3 h protected from light. Epithelial monolayers were then washed three times in ice cold PBS (with calcium and magnesium) to remove free PLVs, followed by a single wash in ice cold isosmotic citrate buffer (pH 3) to remove surface bound PLVs before applying a PBS wash containing 1% Triton X-100 to solubilise membranes. Upon completion of each washing step, calcein fluorescence was measured using a 485 nm excitation and 515 nm emission with a SAFIRE micro plate reader (TECAN) HCE-S monolayers for viability assays were prepared by seeding 96 well plates with 1×10^4 cells/well and maintaining for 24 h at 37° C. in a humidified incubator with 5% CO2. […] Cells were incubated with anti-VEGF/R8 solutions for 24 h before viability of HCE-S cells in response to was assessed using the AlamarBlue (Invitrogen) cell viability assay according to manufacturers instructions. […]

[4] = human, in vivo; cited from earlier work
[5] = in vivo; cited from earlier work
[6] = in vivo rabbit study, topical instillation, anti-VEGF in eye tissue by sandwich ELISA; design: species or system New Zealand rabbits
Description: All animal experiments were performed in compliance with the ARVO Statement for the Use of Animals in Ophthalmic and Vision Research. New Zealand rabbits received unilateral topical instillations of 0.03 mL anti-VEGF in the presence of R8 (varying molar concentrations) either as a liquid or hydrogel formulations without anaesthesia. At the specified time after application animals were euthanized before enucleation, washing (PBS) and snap-freezing and dissection of ocular tissues. Samples were weighed and cryohomogenised before the concentration of anti-VEGF per gram of eye tissue determined using established sandwich ELISA protocols.

[7] = test system: rhVEGF165; details: read-out: IC50, tissue factor up-regulation; cited from earlier work
[8] = test system: human umbilical vein endothelial cell (HUVEC); details: cited from earlier work

Compound: Bevacizumab [Avastin]
transport across the HCE-S barrier in the presence of R8 (ST-R8) [1]: aided the transport

transcytosis of anti-VEGF (Lucentis) loaded liposomes [1]: significantly enhanced | enhancement of delivery of Lucentis across the HCE-S barrier [1]: concentration dependent manner
Compound: CCCCCCCCCCCCCCCCCC(=O)N[C@@H](CCCNC(=N)N)C(=O)N[C@@H](CCCNC(=N)N)C(=O)N[C@@H](CCCNC(=N)N)C(=O)N[C@@H](CCCNC(=N)N)C(=O)N[C@@H](CCCNC(=N)N)C(=O)N[C@@H](CCCNC(=N)N)C(=O)N[C@@H](CCCNC(=N)N)C(=O)N[C@@H](CCCNC(=N)N)C(=O)O [ST-R8, Stearyl-R8]

effect on transport of different sizes of dextran across a membrane [2]: made no difference | transcytosis of Lucentis, peptide alone without liposomes [1]: dramatic enhancement in transcytosis | enhancement of delivery of Lucentis across the HCE-S barrier [1]: concentration dependent manner
Compound: N=C(N)NCCC[C@H](NC(=O)[C@H](CCCNC(=N)N)NC(=O)[C@H](CCCNC(=N)N)NC(=O)[C@H](CCCNC(=N)N)NC(=O)[C@H](CCCNC(=N)N)NC(=O)[C@H](CCCNC(=N)N)NC(=O)[C@H](CCCNC(=N)N)NC(=O)[C@@H](N)CCCNC(=N)N)C(=O)O [R8, RRRRRRRR]
toxicity to HCE-S cells [3]: non-toxic

Compound: Ranibizumab [Lucentis]
clinical Cmax predicted at steady state [4]: 1.7 ng/mL | clinical Cmax, maximal individual level [4]: 2.4 ng/mL | transport across the HCE-S barrier in the presence of R8 (ST-R8) [1]: aided the transport | half-life in the eye [5]: 173 h | free Lucentis detected in retina ([6]; 2 h after topical instillation): ~20 ng | concentration detected in plasma ([6]; free Lucentis, topical instillation, 2 h): < 0.1 ng/mL | proportion of dosed free Lucentis reaching the retina by the topical route ([6]; from dosed eye versus co-eye concentration, n=10): ~30% | Lucentis delivery to the retina ([6]; liquid formulation, 2 h, n=3): 18 ± 8 ng/g | levels of Lucentis in the vitreous and retina/choroid ([6]; rabbit, one eye dosed, 2 hours after topical application): 10 ng/g tissue | IC50 [7]: 0.31 nM | concentration giving total inhibition of proliferation [8]: ≥ 1.3 nM | IC50 ([8]; read-out: IC50, VEGF-induced proliferation): < 1 nM
